In patent US20100095387A1, “METHODS AND REAGENTS FOR SCREENING NEW DRUGS AND FOR TREATING ION PUMP ASSOCIATED DISORDERS AND DISEASES” (priority 2005, published 2010):
Entries after “also recorded” stand apart in the source; their conditions may differ.

Tests used:
[1] = test system: cortical neurons; test: c-fos induction, Fos in situ enzyme-linked immunoassay in cortical cultures; format: cell-based, mouse; settings: C-AgΔ20 at 50 pM or 5 nM; C-Ag15 up to fivefold above saturation for C-Ag20z0/8
Experimental: (§1) Mouse cortical cultures were prepared from newborn or 1-d-old ICR strain mice (Harlan) as described previously (Hilgenberg et al., 1999). For the first 24 h after plating, cells were maintained in neural basal medium (NBM) plus B27 supplements (Invitrogen), and in nonneuronal cell-conditioned NBM (cNBM) plus B27 thereafter, at 37° C. in humidified 5% CO2 atmosphere. To further reduce proliferation of nonneuronal cells, cultures on glass coverslips used for histology were treated with 5 μM 5-fluoro-2-deoxyuridine (Sigma-Aldrich) 3-4 d after plating. Hippocampal and cerebellar cultures were prepared in a similar manner. Experiments were performed on 10-14-d-old cultures. Agrin-deficient neuron cultures were prepared from cortices of embryonic d 18-19 fetuses resulting from matings between mice heterozygous for a mutation in the agrin gene (Gautam et al., 1996). Cultures were prepared and genotyped as described previously (Li et al., 1999), and were maintained as above.
(§2) Fos expression in cortical cultures was measured by in situ enzyme-linked immunoassay (Hilgenberg et al., 1999). In brief, 11-14-d-old neuronal cultures were treated for 10 min with agrin or other agent diluted in NBM or PBS, then washed in cNBM and returned to the incubator for 2 h. […] The level of Fos expression was determined by monitoring conversion of p-nitrophenyl phosphate to a soluble yellow reaction product at 405 nm.

[2] = test system: cerebellar neurons; test: Fos expression in cerebellar neurons; format: cell-based, mouse; settings: 1 nM C-Ag15 with 50 pM C-Ag95z8
Experimental: as §1
as §2, with “nm. […]” for “nm.”

[3] = test system: chick skeletal myotubes; test: Fos expression in chick muscle cultures; format: cell-based; settings: 1 nM C-Ag15 with 50 pM C-Ag95z8
Experimental: Chick muscle cultures were prepared from pectoral muscles of 10-11-d-old White Leghorn chick embryos as described previously (Hilgenberg et al., 1999). Experiments were performed on 4-6-d-old cultures.
Fos expression in cortical cultures was measured by in situ enzyme-linked immunoassay (Hilgenberg et al., 1999). In brief, 11-14-d-old neuronal cultures were treated for 10 min with agrin or other agent diluted in NBM or PBS, then washed in cNBM and returned to the incubator for 2 h. Cultures were rinsed in PBS, fixed in ice cold 4% PFA, and blocked in PBS containing 0.1% Triton X-100 and 4% BSA (PBSTB) before being incubated in a primary rabbit antibody against Fos (Ab-2; Oncogene Research Products) and secondary goat antibody against […] conjugated to alkaline phosphatase (Southern Biotechnology Associates, Inc.). The level of Fos expression was determined by monitoring conversion of p-nitrophenyl phosphate to a soluble yellow reaction product at 405 nm.
To learn whether inhibition of agrin signaling by C-Ag15 might extend to other neurons or even muscle, mouse hippocampal and cerebellar neurons or chick skeletal myotubes were incubated with 50 pM C-Ag95z8 alone or in the presence of 1 nM C-Ag15, a concentration that blocks activity in cortical neurons. […] However, co-incubation with C-Ag15 inhibited Fos expression in the neurons, but had no effect on muscle. […]

[4] = test system: agrin-deficient neurons; test: Rescue of glutamate-induced Fos expression in agrin-deficient neuron cultures; format: cell-based, mouse
Experimental: FIG. 6 is a graph showing that the 20-kD COOH-terminal region of agrin is the minimal fragment sufficient to rescue an agrin-deficient phenotype. (A) 10-d-old wild-type (filled bars) or agrin-deficient (open bars) cultures were grown for 2 d in media supplemented to 5 nM with the indicated agrin fragment. Cultures were challenged for 5 min with 100 μM glutamate as described previously (Hilgenberg et al., 2002), and the levels of Fos expression were determined. Data were normalized to levels of glutamate-induced Fos expression in mocktreated wild-type cultures. Compared with mock, glutamate responses of homozygous agrin-deficient neurons were rescued to near wildtype levels by either the long C-Ag95z8/0 or short C-Ag20z8/0 fragments (***, P≦0.0005; **, P≦0.002; *, P≦0.02; paired t test). (B) To test the ability of C-Ag15 to antagonize agrin action, 10-d-old agrin-deficient neurons were maintained for 2 d in the presence of 5 nM C-Ag95z0 alone or in combination with 10 nM C-Ag15, and neuronal responses to glutamate were determined as above. […]
Fos expression in cortical cultures was measured by in situ enzyme-linked immunoassay (Hilgenberg et al., 1999). […] The level of Fos expression was determined by monitoring conversion of p-nitrophenyl phosphate to a soluble yellow reaction product at 405 nm.

[5] = test system: cultured cortical neurons; test: Glutamate excitotoxic injury of cultured cortical neurons, LDH in growth medium; format: cell-based; settings: 10 minutes glutamate with C-Ag15; preliminary data
Experimental: FIG. 15. C-Ag15 is neuroprotective for excitotoxic injury. Cultured cortical eurons were treated for 10 minutes with the excitatory neurotransmitter glutamate in the presence of the indicated concentration of C-Ag15 and degree of neuronal injury assessed by monitoring the level of LDH in the growth medium. Data are expressed as a percentage of the LDH in sister cultures treated with glutamate alone. The neuroprotective effect of C-Ag15 is dose-dependent.

[6] = test system: cardiac myocytes; test: Spontaneous contraction frequency of cultured cardiac myocytes; format: cell-based, mouse
Experimental: FIG. 17. Cardiac myocyte contraction is agrin dependent. Cardiac myocytes were prepared from hearts of individual embryos produced by heterozygous pairings. The genotype of cultures was determined by PCR analysis of tissue samples from each embryo. Myocytes were maintained in 199 medium containing 10% FCS as described (Mitcheson et al., 1998). At 5 days in culture, the frequency of spontaneous contractions was determined by counting contractions in myocytes from 5 random fields at 300× magnification for 30 seconds. Contraction frequency is dependent on Agrn gene dosage such that Agrn−/−>Agrn+/−>Agrn+/+. Addition of C-Ag208 to the growth medium rescues the Agrn mutant phenotype whereas C-Ag15 increased the contraction frequency of wild type myocytes to a level similar to Agrn−/− cells. Bars show mean±SEM for a minimum of 2 independent platings from 3 embryos, except for Agrn+/−treated with C-Ag208, which was a single plating of 2 embryos. All data were collected blind with respect to genotype and agrin treatment. *** p≦0.001. ANOVA with Bonferroni post-hoc pair-wise comparison.
Quantitative studies confirmed and extended these observations by showing that the frequency of myocyte contraction is dependent on agrin gene dose: Agrn−/− myocyte contraction frequency is about 2-fold higher and Agrn+/− 1.5-fold higher than Agrn+/+ myocytes (FIG. 17). To learn whether the effect of the Agrn mutation on myocyte contraction is a direct result of the loss of agrin expression the effects of growing the cells in media supplemented with C-Ag208, an active agrin fragment, or C-Ag15, the agrin antagonist was next examined.

B1: C-Ag15: 15-kD COOH-terminal fragment of agrin created by deleting 37 amino acids from the NH2 terminus of C-Ag20, SEQ. ID NO. 3 (protein)
chain: MDPWIGKAAERADYMALAIVDGHLQLSYDLASQPVVLRSTVKVNTNRWLRVRAHREHREGSLQVGNEAPVTSSSPLGATQLDTDGALWLGGLQKLPVGQPLPKAYGTGFVGCLRNVVGHRQLHLLEDAVTKPELRPCPTLNSKLGPEQKLISEEDLNSAVDHHHHHH
modifications: Synthetically produced sequence
For B1, the “effect of fragment alone on Fos expression” value [1] was “no effect”, the “effect on C-Ag95z8-induced Fos expression” value [2] was “completely inhibited” and the “effect on C-Ag95z8-induced Fos expression” value [3] was “no effect”. The “rescue by C-Ag95z0 blocked” value ([4]; 10 nM C-Ag15 with 5 nM C-Ag95z0 in growth medium) was 54%, the “effect on glutamate-induced expression of c-fos” value ([4]; up to 10 nM, wild-type or heterozygous agrin-deficient neurons) was “no effect” and the “neuronal injury, LDH in growth medium” value [5] was “neuroprotective; also recorded: dose-dependent”. For the same molecule, the contraction frequency ([6]; Agrn+/+ and Agrn+/− myocytes grown in fragment) was “significantly increased” and the contraction frequency ([6]; Agrn−/− cells grown in fragment) was “no effect”.
